From patent US20040132641A1 (University of Pennsylvania, published 2004) come the findings set out here.

In test [1] the target is T1, Flag-tagged soluble human Fas ligand (FasL-Flag) (human, UniProt P48023 103-281, limits assumed).
T1 construct: Bought from Kamiya Biomedical; also called soluble FasL-Flag fusion protein; not shown: Flag tag
T1 sequence (looked up): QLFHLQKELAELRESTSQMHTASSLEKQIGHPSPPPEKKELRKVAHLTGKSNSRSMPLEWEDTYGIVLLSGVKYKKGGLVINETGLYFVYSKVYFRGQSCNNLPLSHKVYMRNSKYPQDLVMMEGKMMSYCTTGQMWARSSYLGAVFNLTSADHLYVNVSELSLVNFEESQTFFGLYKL
Briefly: SPR (BIAcore), FasL-Flag immobilised, Kp7-6 in solution; ratio of rate constants. How it is done: (§1) The kinetics of binding of Kp7-6, which mediated the best inhibitory activity to FasL, was performed using surface plasmon resonance (BIAcore™) analysis. FasL-Flag was immobilized onto a sensor chip and various solutions containing different concentrations of Kp7-6 were passed over the surface. […] The koff value is considered as an important indicator in the development of therapeutics with biological activity (Benveniste, M. et al. Br J Pharmacol 104, 207-221 (1991); Yiallouros, I. et al. Biochem J 331, 375-379 (1998)), and generally correlates with potent biological effects. (Moosmayer, D. et al. J Interferon Cytokine Res 16, 471-477 (1996)). […] (Berezov, A. et al. J Med Chem 44, 2565-2574 (2001)).
(§2) Biosensor analysis. All experiments were carried out on a BIAcore 3000 instrument (Biacore A G, Uppsala, Sweden) at 25° C. using PBS, pH 7.4, containing 0.005% surfactant P20 (Biacore A G) as the running buffer. FasL-Flag, Fas-Fc or TNFRI-Fc was immobilized on research-grade CM5 sensor chips (Biacore AG) using standard N-ethyl-N-dimethylaminopropyl carbodiimid/N-hydroxysuccinimide coupling. Immobilization was performed in 10 mM sodium acetate buffer at pH 4.5 for FasL-Flag and Fas-Fc, and at pH 4.0 for TNFRI-Fc. After coupling, excess N-hydroxysuccinimide groups were inactivated with ethanolamine. […] Data were analyzed with the BIA evaluation 3.0 software (Biacore AG). […]

The target of test [2] is T1, Flag-tagged soluble human Fas ligand …. Briefly: solid phase ligand binding assay; peptide preincubated with FasL-Flag, inhibition of binding to immobilised Fas-Fc. How it is done: To compare the inhibitory activities of the Kp7 peptide series, dose-response studies were performed. The best activity was found with Kp7-6, which inhibited 50% of the FasL-Flag molecule binding to immobilized Fas-Fc at 150 μM (FIG. 2B).
Solid phase ligand binding assay. Fas-Fc fusion protein (250 ng/ml) diluted in PBS was immobilized onto 96 well ELISA plate (Costar, High Wycombe, UK) by incubating overnight at 4° C. After blocking with PBS containing 1% skim milk overnight at 4° C. and subsequent washing with PBS containing 0.05% Tween 20 (PBS-Tw), Flag-tagged soluble FasL (100 ng/ml)/peptide solution preincubated in PBS containing 1% skim milk for 1 h at 37° C. was added onto the Fas-Fc coated wells. After 2 h incubation at room temperature, the plate was washed with PBS-Tw, and anti-FLAG(M2)-HRP antibody 1:2500 in PBS containing 1% skim milk was added. After 1 h incubation at room temperature, the plate was washed with PBS-Tw, and the enzyme reaction was started by adding the substrate solution (0.1M sodium acetate buffer (pH 5.0) containing 100 μg/ml of TMBZ and 0.005% (v/v) H₂O₂) and stopped with 2N H₂SO₄. The absorbance at 450 nm was measured with an ELISA reader.

Test [3] has as its target T2, Human recombinant TNFα (human, UniProt P01375 77-233).
T2 construct: Bought from Roche Diagnostics
Briefly: SPR (BIAcore 3000), TNFα immobilised, Kp7-6 in flow; peptide concentration not given. On the technique in general: SPR reads the build-up and loss of mass on a sensor chip optically.

Test [4] has as its target T3, human Fas extra cellular domain-IgGFc fusion protein (Fas-Fc) (human, UniProt P25445 26-173).
T3 construct: extracellular domain; Bought from Kamiya Biomedical; also called soluble Fas receptor; not shown: IgG Fc
T3 sequence (looked up): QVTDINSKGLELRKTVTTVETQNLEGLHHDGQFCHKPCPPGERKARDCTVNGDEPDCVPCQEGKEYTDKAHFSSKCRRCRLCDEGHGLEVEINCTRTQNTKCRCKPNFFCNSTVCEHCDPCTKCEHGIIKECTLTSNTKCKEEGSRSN
Briefly: SPR (BIAcore 3000), Fas-Fc immobilised, Kp7-6 in flow. How it is done:
(§3) To assess the specificity of Kp7-6 binding interaction, Fas, FasL and TNFα were immobilized on a sensor chip. Kp7-6 bound to FasL but not to TNFα, which indicates Kp7-6 bound to FasL specifically (FIG. 3B). Kp7-6 also bound to Fas (FIG. 3B). […] (Naismith, J. H. et al. Structure 4, 1251-1262 (1996)). […] No significant binding to TNF-R was detected.
(§4) Biosensor analysis. All experiments were carried out on a BIAcore 3000 instrument (Biacore A G, Uppsala, Sweden) at 25° C. using PBS, pH 7.4, containing 0.005% surfactant P20 (Biacore A G) as the running buffer. FasL-Flag, Fas-Fc or TNFRI-Fc was immobilized on research-grade CM5 sensor chips (Biacore AG) using standard N-ethyl-N-dimethylaminopropyl carbodiimid/N-hydroxysuccinimide coupling. Immobilization was performed in 10 mM sodium acetate buffer at pH 4.5 for FasL-Flag and Fas-Fc, and at pH 4.0 for TNFRI-Fc. After coupling, excess N-hydroxysuccinimide groups were inactivated with ethanolamine. For binding studies, about 1500 resonance units (RU) of FasL-Flag, Fas-Fc and TNFRI-Fc were coupled to the chips. Surface plasmon resonance (SPR) measurements were carried out at a flow rate of […]. Data were analyzed with the BIA evaluation 3.0 software (Biacore AG). The sensograms give values for the relative response in resonance units (RU) after background subtraction versus time in seconds. […]

Test [5] addresses T1, Flag-tagged soluble human Fas ligand …. Briefly: SPR (BIAcore), FasL-Flag immobilised, Kp7-6 in solution. How it is done: as §1, §2
For test [6], the target named is T4, Human recombinant TNF-receptor (I) extracellular domain-IgGFc fusion protein (TNFRI-Fc) (human, UniProt P19438 30-211).
T4 construct: extracellular domain; not shown: IgG Fc
T4 sequence (looked up): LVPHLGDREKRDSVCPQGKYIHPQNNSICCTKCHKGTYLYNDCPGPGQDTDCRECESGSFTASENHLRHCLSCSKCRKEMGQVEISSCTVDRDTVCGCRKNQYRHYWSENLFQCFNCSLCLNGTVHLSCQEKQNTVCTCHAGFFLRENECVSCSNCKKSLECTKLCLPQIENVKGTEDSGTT
Briefly: SPR (BIAcore), target immobilised on sensor chip. How it is done:
as §3, §4

Broadly, the Kd is the free concentration of one partner at which half of the binding sites on the other are occupied at equilibrium, for simple one-to-one binding. For orientation: IC50 means the concentration that gives 50% inhibition. Low readings indicate inhibition by little substance, high ones a need for much substance. As a reminder, the koff is the rate constant with which the complex falls apart. Higher therefore signals a short-lived complex.

Positions of bridges follow the written chain, without caps; N, C: chain ends. No end group written: not given here.

T2 sequence (P01375 77-233 limits assumed): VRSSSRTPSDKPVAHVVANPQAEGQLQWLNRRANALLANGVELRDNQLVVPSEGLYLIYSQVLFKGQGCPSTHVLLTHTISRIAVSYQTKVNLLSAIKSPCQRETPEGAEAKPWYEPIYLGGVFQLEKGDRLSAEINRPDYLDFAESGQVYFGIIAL

B1: Kp7-6 (peptide)
peptide: YCDEHFCY
modifications: disulfide 2-7
notes: Synthetic exocyclic peptide derived from the Kp7 loop of human Fas (91 CDEGHGL 97); also called Fas mimetic Kp7-6; exocyclic mimetic Kp7-6
Regarding B1, the Kd in test [1] was determined as 11.2 µM. This molecule also showed an IC50 in test [2] of 150 µM. Also, the figures for the binding result in test [3], in test [4] and in test [6] were “no binding”, “binds” and “no binding”, respectively. This molecule had a koff in test [5] of 0.000765 s⁻¹.
